pKd: −log10 of the molar value.
Columns and labels:
HLA-A*32:15 = assay: IEDB peptide-MHC binding, purified MHC/competitive/fluorescence; filed as Kd, often an IC50 or EC50 that approximates it; ≥ and ≤ were set here for values at or beyond the usual limits of such assays
HLA-B*45:06 = assay: as above
HLA-B*83:01 = assay: as above
HLA-B*15:42 = assay: as above
HLA-A*68:23 = assay: as above
HLA-A*02:01 [1] = assay: IEDB peptide-MHC binding, purified MHC/direct/fluorescence; filed as Kd, often an IC50 or EC50 that approximates it; ≥ and ≤ were set here for values at or beyond the usual limits of such assays
HLA-A*02:01 [2] = assay: IEDB peptide-MHC binding, purified MHC/competitive/fluorescence; filed as Kd, often an IC50 or EC50 that approximates it; ≥ and ≤ were set here for values at or beyond the usual limits of such assays
HLA-B*58:01 [3] = assay: as above
HLA-B*15:01 [4] = assay: as above; conditions: source organism: Vibrio antiquarius
HLA-B*39:01 = assay: as above; conditions: source organism: Vibrio antiquarius
HLA-B*51:01 = assay: as above; conditions: source organism: Vibrio antiquarius
HLA-C*06:02 = assay: IEDB peptide-MHC binding, purified MHC/direct/fluorescence; filed as Kd, often an IC50 or EC50 that approximates it; ≥ and ≤ were set here for values at or beyond the usual limits of such assays
HLA-C*05:01 = assay: as above
HLA-A*26:01 = assay: IEDB peptide-MHC binding, purified MHC/competitive/fluorescence; filed as Kd, often an IC50 or EC50 that approximates it; ≥ and ≤ were set here for values at or beyond the usual limits of such assays; conditions: source organism: Homo sapiens
HLA-B*27:03 = assay: as above; conditions: source organism: Homo sapiens
HLA-A*03:01 = assay: as above; conditions: source organism: Homo sapiens
HLA-C*12:03 = assay: IEDB peptide-MHC binding, purified MHC/direct/fluorescence; filed as Kd, often an IC50 or EC50 that approximates it; ≥ and ≤ were set here for values at or beyond the usual limits of such assays; conditions: source organism: Homo sapiens
HLA-B*46:01 [5] = assay: IEDB peptide-MHC binding, purified MHC/competitive/fluorescence; filed as Kd, often an IC50 or EC50 that approximates it; ≥ and ≤ were set here for values at or beyond the usual limits of such assays; conditions: source organism: dengue virus type 1
HLA-C*14:02 = assay: IEDB peptide-MHC binding, purified MHC/direct/fluorescence; filed as Kd, often an IC50 or EC50 that approximates it; ≥ and ≤ were set here for values at or beyond the usual limits of such assays; conditions: source organism: dengue virus type 1
HLA-C*08:02 = assay: as above
HLA-A*02:01 [6] = assay: IEDB peptide-MHC binding, purified MHC/competitive/radioactivity; filed as Kd, often an IC50 or EC50 that approximates it; ≥ and ≤ were set here for values at or beyond the usual limits of such assays; conditions: source organism: Dengue virus 2 Jamaica/1409/1983
HLA-A*02:17 = assay: as above; conditions: source organism: Dengue virus 2 Jamaica/1409/1983
HLA-A*68:02 [7] = assay: as above; conditions: source organism: Dengue virus 2 Jamaica/1409/1983
HLA-A*02:03 = assay: as above; conditions: source organism: Dengue virus 2 Jamaica/1409/1983
HLA-A*02:06 = assay: as above; conditions: source organism: Dengue virus 2 Jamaica/1409/1983
HLA-C*04:01 = assay: IEDB peptide-MHC binding, purified MHC/competitive/fluorescence; filed as Kd, often an IC50 or EC50 that approximates it; ≥ and ≤ were set here for values at or beyond the usual limits of such assays; conditions: source organism: Giardia lamblia ATCC 50803
HLA-A*01:01 = assay: IEDB peptide-MHC binding, purified MHC/direct/fluorescence; filed as Kd, often an IC50 or EC50 that approximates it; ≥ and ≤ were set here for values at or beyond the usual limits of such assays
HLA-A*26:02 = assay: IEDB peptide-MHC binding, purified MHC/competitive/fluorescence; filed as Kd, often an IC50 or EC50 that approximates it; ≥ and ≤ were set here for values at or beyond the usual limits of such assays; conditions: source organism: Orthomarburgvirus marburgense
HLA-B*08:01 = assay: IEDB peptide-MHC binding, purified MHC/direct/fluorescence; filed as Kd, often an IC50 or EC50 that approximates it; ≥ and ≤ were set here for values at or beyond the usual limits of such assays; conditions: source organism: Orthomarburgvirus marburgense
HLA-B*15:17 = assay: as above; conditions: source organism: Marburg virus - Musoke, Kenya, 1980
HLA-B*15:02 = assay: as above; conditions: source organism: Orthomarburgvirus marburgense
HLA-B*57:01 [8] = assay: as above; conditions: source organism: Marburg virus - Musoke, Kenya, 1980
HLA-A*68:02 [9] = assay: as above; conditions: source organism: Marburg virus - Musoke, Kenya, 1980
HLA-B*58:01 [10] = assay: as above; conditions: source organism: Marburg virus - Musoke, Kenya, 1980
HLA-B*15:01 [11] = assay: as above; conditions: source organism: Marburg virus - Musoke, Kenya, 1980
HLA-A*31:01 = assay: as above; conditions: source organism: Marburg virus - Musoke, Kenya, 1980
HLA-B*07:02 = assay: as above; conditions: source organism: Marburg virus - Musoke, Kenya, 1980
HLA-A*11:01 = assay: as above; conditions: source organism: Marburg virus - Musoke, Kenya, 1980
HLA-B*27:05 = assay: as above; conditions: source organism: Marburg virus - Musoke, Kenya, 1980
HLA-B*48:01 = assay: as above; conditions: source organism: Marburg virus - Musoke, Kenya, 1980
HLA-B*46:01 [12] = assay: as above; conditions: source organism: Marburg virus - Musoke, Kenya, 1980
HLA-A*69:01 = assay: as above; conditions: source organism: Marburg virus - Musoke, Kenya, 1980
HLA-B*57:01 [13] = assay: IEDB peptide-MHC binding, purified MHC/competitive/fluorescence; filed as Kd, often an IC50 or EC50 that approximates it; ≥ and ≤ were set here for values at or beyond the usual limits of such assays; conditions: source organism: Human herpesvirus 4 strain B95-8
HLA-A*23:01 = assay: as above; conditions: source organism: Human herpesvirus 4 strain B95-8
[14] = source organism: human gammaherpesvirus 4
[15] = source organism: Human herpesvirus 4 strain B95-8
[16] = source organism: Vibrio antiquarius
[17] = source organism: dengue virus type 1
[18] = source organism: Giardia lamblia ATCC 50803
[19] = source organism: Marburg virus - Musoke, Kenya, 1980

EVFFGLSRY was tested, and the pKd (HLA-A*32:15; [14]) was 7.57, the pKd (HLA-B*45:06; [14]) was no more than 5.30 and the pKd (HLA-B*83:01; [14]) was no more than 5.30. It also gave a pKd (HLA-B*15:42; [14]) of no more than 5.30, a pKd (HLA-A*68:23; [14]) of no less than 10.00 and a pKd (HLA-A*02:01 [1]; [15]) of no more than 5.00.
In the case of FAMTVPLLI, the pKd (HLA-A*02:01 [2]; [16]) was 8.57, the pKd (HLA-B*58:01 [3]; [16]) was 8.85 and the pKd (HLA-B*15:01 [4]) was no more than 4.70. The pKd (HLA-B*39:01) was 8.05, the pKd (HLA-B*51:01) was 6.90 and the pKd (HLA-C*06:02; [16]) was 7.59. It also gave a pKd (HLA-C*05:01; [16]) of no less than 9.00.
FLNPVIYTF was tested, and the pKd (HLA-A*26:01) was no more than 4.70, the pKd (HLA-A*02:01 [2]; source organism: Homo sapiens) was 8.80 and the pKd (HLA-B*27:03) was no more than 4.70. For the same sequence, the pKd (HLA-A*32:15; source organism: Homo sapiens) was 7.62, the pKd (HLA-A*03:01) was no more than 4.70 and the pKd (HLA-B*45:06; source organism: Homo sapiens) was no more than 5.30. The pKd (HLA-B*83:01; source organism: Homo sapiens) was 6.62, the pKd (HLA-B*15:42; source organism: Homo sapiens) was no more than 5.30 and the pKd (HLA-C*12:03) was 7.54.
FTMRLLSPV gave a pKd (HLA-A*32:15; [17]) of 6.94, a pKd (HLA-B*45:06; [17]) of no more than 5.30 and a pKd (HLA-B*83:01; [17]) of no more than 5.30. It also gave a pKd (HLA-B*46:01 [5]) of 7.82, a pKd (HLA-B*15:42; [17]) of no more than 5.30 and a pKd (HLA-C*14:02) of 7.01. For the same sequence, the pKd (HLA-C*08:02; [17]) was 6.50, the pKd (HLA-C*06:02; [17]) was no more than 4.70 and the pKd (HLA-C*05:01; [17]) was 5.64. It also gave a pKd (HLA-A*02:01 [6]) of 8.81, a pKd (HLA-A*02:17) of 7.53 and a pKd (HLA-A*68:02 [7]) of 9.11. For the same sequence, the pKd (HLA-A*02:03) was 8.46 and the pKd (HLA-A*02:06) was 8.36.
Work on MTDVDLNYY yielded a pKd (HLA-B*45:06; [18]) of no more than 5.30, a pKd (HLA-C*04:01) of no more than 5.30 and a pKd (HLA-B*83:01; [18]) of no more than 5.30. For the same sequence, the pKd (HLA-B*15:42; [18]) was no more than 5.30, the pKd (HLA-A*68:23; [18]) was 8.70 and the pKd (HLA-A*01:01; [18]) was no less than 9.00. It also gave a pKd (HLA-C*08:02; [18]) of no more than 4.70.
NQQVTNSKY was tested, and the pKd (HLA-A*26:02) was no more than 4.70, the pKd (HLA-A*02:01 [1]; [19]) was no more than 4.70 and the pKd (HLA-B*08:01) was no more than 4.70. For the same sequence, the pKd (HLA-B*15:17) was no more than 4.70, the pKd (HLA-B*15:02) was 7.06 and the pKd (HLA-B*57:01 [8]) was no more than 4.70. The pKd (HLA-A*68:02 [9]) was no more than 4.70, the pKd (HLA-A*01:01; [19]) was no more than 4.70 and the pKd (HLA-B*58:01 [10]) was no more than 4.70. It also gave a pKd (HLA-B*15:01 [11]) of 7.10, a pKd (HLA-A*31:01) of no more than 4.70 and a pKd (HLA-B*07:02) of no more than 4.70. It also gave a pKd (HLA-A*11:01) of no more than 4.70, a pKd (HLA-B*27:05) of no more than 4.70 and a pKd (HLA-B*48:01) of no more than 4.70. For the same sequence, the pKd (HLA-B*46:01 [12]) was no more than 4.70 and the pKd (HLA-A*69:01) was no more than 4.70.
VSFIEFVGW gave a pKd (HLA-B*57:01 [13]) of 7.60, a pKd (HLA-B*58:01 [3]; [15]) of 8.96 and a pKd (HLA-A*23:01) of 7.20.

— the Immune Epitope Database (IEDB)
